These results are taken from publication PMC11298593, “ArcS from Thermococcus kodakarensis transfers L-lysine to preQ0 nucleoside derivatives as minimum substrate RNAs” (The Journal of Biological Chemistry, 2024).

Substrate in data set [1]: NCCCC[C@H](N)C(=O)O
The data set is described as follows: purified protein. It counts as biochemical, Thermococcus kodakarensis. Conditions: 204 μM S. cerevisiae tRNA-Phe-preQ0 co-substrate, pH 7.6, 5 mM MgCl2, 50 mM KCl, 60 °C, labelled compound, unit μM from text b13 (table heading prints μmol).

Substrate in data set [2]: N#Cc1cn([C@@H]2O[C@H](COP(=O)(O)O)[C@@H](O)[C@H]2O)c2nc(N)[nH]c(=O)c12
Description: purified protein. It counts as biochemical, Thermococcus kodakarensis. Particulars: 200 μM lysine co-substrate, pH 7.6, 5 mM MgCl2, 50 mM KCl, no 2-mercaptoethanol, 60 °C, unit μM from text b23 (table heading prints μmol).

B1: ArcS and RaSEA complex (ArcS-RaSEA complex) (Thermococcus kodakarensis KOD1) (protein)
chain: MEVIKHEGPGRLGVVRLGDYSFRTPALVGIDFTLSPFNSFFHPKEPGEYDFNLAPSIPLGFYTPDEVIQKAIGRLWSVNYDGFNAFYLPALRRTEYLEEFFKIIDRHNFDAVYLGNSKILIKEYRYFVRILRELRERFPNVMIIADLEPFFYPLAVYLGIDAFDTRSLKLYDFEGKGFTQFSPFLWSNEPNSLDFAREVILLVRKALEEGKLRYLVENFFPTQYNAGILRIADLEHPDYLEKYTPIQKETVYFISDASIRRPEVKRWHERVLERFTPPKNVELLLLFPCSAKKPYSFSRSHTLYRRAVKEALGSGTSKVHELILTSPFGVVPREWEWLAKYDIVVTGHWSEEEIKPAAELLAKTLEKYPEDIPIVAHLDEAYVEIAKLASELSGREIIFTDVKNGTTSHESLRSLTETLREFQIEGTKEDRTYRYFENIRKVFDFYFGVGAGEAILPENGQVKGSKMLRIFVEGQQTGTFTDGVISVTPYGMQRIYDALKSYWVKIDFELRGDVFAVGVEEADPRIRPDDIVGIVRDEKVVGVGKAVLSGEEMVRAKKGVAVKVRKRV
notes: recombinant complex expressed in E. coli, purified aerobically (RaSEA apo, no Fe-S cluster); His x 6-ArcS given for the co-expression; with Archaeosine synthase subunit beta
B1: the Km (usually the substrate concentration at which the rate is half of its maximum) in data set [1] was 40.9 ± 8.7 µM; in data set [2], 433.4 ± 6.0 µM. The kcat (as a rule, the number of substrate molecules converted per active site and unit of time at saturation) was found to be 0.102 ± 0.0117 s⁻¹ in data set [1] and 0.387 ± 0.0617 s⁻¹ in data set [2].
